Experimental findings from patent US5972683 are described below.

Assay [1] has as its target elastin-orcein.
In assay [2] the target is casein.
Assay [3] has as its target myofibrillar protein.
In assay [4] the target is succinyl-Ala-Ala-Pro-Ala-p-nitroanilide (Artificial Sequence).
Assay [5] has as its target succinyl-Ala-Ala-Val-Ala-p-nitroanilide (Artificial Sequence).
In assay [6] the target is succinyl-Ala-Ala-Pro-Leu-p-nitroanilide.
Assay [7] deals with succinyl-Ala-Ala-Pro-Phe-p-nitroanilide (Artificial Sequence).

subtilisin YaB mutant 151L (enzyme): the Specific activity (unit/mg protein), elastin-orcein (unit/mg protein) in assay [1] stood at 161. The Specific activity (unit/mg protein), casein (unit/mg protein) in assay [2] amounted to 717.
The substance subtilisin YaB mutant G124A (enzyme) yielded a Specific activity (unit/mg protein), myofibril (unit/mg protein) in assay [3] of 1020. This substance also came in with a Specific activity (unit/mg protein), elastin-orcein (unit/mg protein) in assay [1] of 647. The Specific activity (unit/mg protein), casein (unit/mg protein) in assay [2] turned out to be 3800.
Turning to “subtilisin YaB mutant G124A (enzyme; unit assumed)”, the results for the kcat /Km in assay [4] and in assay [5] were 17000 M⁻¹ s⁻¹ and 122000 M⁻¹ s⁻¹, respectively.
With subtilisin YaB mutant G124I (enzyme), the Specific activity (unit/mg protein), myofibril (unit/mg protein) in assay [3] came out at 717. In assay [1], this substance had a Specific activity (unit/mg protein), elastin-orcein (unit/mg protein) of 64. In assay [2], this substance registered a Specific activity (unit/mg protein), casein (unit/mg protein) of 602.
As to subtilisin YaB mutant G124L (enzyme), the Specific activity (unit/mg protein), myofibril (unit/mg protein) in assay [3] was found to be 366. This substance displayed a Specific activity (unit/mg protein), elastin-orcein (unit/mg protein) in assay [1] of 157. Also, the Specific activity (unit/mg protein), casein (unit/mg protein) in assay [2] came to 1250.
In the case of subtilisin YaB mutant G124V (enzyme), the Specific activity (unit/mg protein), myofibril (unit/mg protein) in assay [3] was determined as 605. In addition, the Specific activity (unit/mg protein), elastin-orcein (unit/mg protein) in assay [1] turned out to be 425. The Specific activity (unit/mg protein), casein (unit/mg protein) in assay [2] came out at 1400.
For the substance “subtilisin YaB mutant G124V (enzyme; unit assumed)”, the kcat /Km in assay [4] was found to be 416 M⁻¹ s⁻¹; in assay [5] it was 6480 M⁻¹ s⁻¹.
In assay [3], subtilisin YaB mutant G151A (enzyme) gave a Specific activity (unit/mg protein), myofibril (unit/mg protein) of 750. The substance further returned a Specific activity (unit/mg protein), elastin-orcein (unit/mg protein) in assay [1] of 355. For the same substance, the Specific activity (unit/mg protein), casein (unit/mg protein) in assay [2] was 1780.
Turning to “subtilisin YaB mutant G151A (enzyme; unit assumed)”, the kcat /Km was 2690 M⁻¹ s⁻¹ in assay [4], 5590 M⁻¹ s⁻¹ in assay [6] and 56100 M⁻¹ s⁻¹ in assay [5].
Turning to subtilisin YaB mutant G151I (enzyme), the Specific activity (unit/mg protein), elastin-orcein (unit/mg protein) in assay [1] came out at 138. In addition, in assay [2], the Specific activity (unit/mg protein), casein (unit/mg protein) is 511.
In the case of subtilisin YaB mutant G151V (enzyme), the Specific activity (unit/mg protein), elastin-orcein (unit/mg protein) in assay [1] was 148. The Specific activity (unit/mg protein), casein (unit/mg protein) in assay [2] was found to be 618.
Substance subtilisin YaB mutant G159A (enzyme) came in with a Specific activity (unit/mg protein), myofibril (unit/mg protein) in assay [3] of 2040. This substance returned a Specific activity (unit/mg protein), elastin-orcein (unit/mg protein) in assay [1] of 2080. In assay [2], this substance gave a Specific activity (unit/mg protein), casein (unit/mg protein) of 7780.
On to “subtilisin YaB mutant G159A (enzyme; unit assumed)”, for which the kcat /Km in assay [7] is 40500 M⁻¹ s⁻¹; in assay [4] it was 1040 M⁻¹ s⁻¹; in assay [6], 3860 M⁻¹ s⁻¹; in assay [5] it was 15700 M⁻¹ s⁻¹.
subtilisin YaB mutant G159F (enzyme) displayed a Specific activity (unit/mg protein), elastin-orcein (unit/mg protein) in assay [1] of 12. This substance also gave a Specific activity (unit/mg protein), casein (unit/mg protein) in assay [2] of 135.
As for subtilisin YaB mutant G159I (enzyme), in assay [1], the Specific activity (unit/mg protein), elastin-orcein (unit/mg protein) worked out at 142. The substance also yielded a Specific activity (unit/mg protein), casein (unit/mg protein) in assay [2] of 872.
subtilisin YaB mutant G159L (enzyme) showed a Specific activity (unit/mg protein), elastin-orcein (unit/mg protein) in assay [1] of 9. This substance yielded a Specific activity (unit/mg protein), casein (unit/mg protein) in assay [2] of 112.
Turning to subtilisin YaB mutant G159S (enzyme), in assay [3], the Specific activity (unit/mg protein), myofibril (unit/mg protein) stood at 2330. Moreover, the Specific activity (unit/mg protein), elastin-orcein (unit/mg protein) in assay [1] came out at 1510. This substance also gave a Specific activity (unit/mg protein), casein (unit/mg protein) in assay [2] of 8940.
As to “subtilisin YaB mutant G159S (enzyme; unit assumed)”, the kcat /Km in assay [7] came to 35700 M⁻¹ s⁻¹; in assay [4], 1600 M⁻¹ s⁻¹; in assay [6], 4130 M⁻¹ s⁻¹; in assay [5], 19800 M⁻¹ s⁻¹.
In assay [1], subtilisin YaB mutant G159V (enzyme) yielded a Specific activity (unit/mg protein), elastin-orcein (unit/mg protein) of 37. In addition, in assay [2], the Specific activity (unit/mg protein), casein (unit/mg protein) is 431.
In assay [3], subtilisin YaB mutant G159W (enzyme) displayed a Specific activity (unit/mg protein), myofibril (unit/mg protein) of 672. In assay [1], this substance showed a Specific activity (unit/mg protein), elastin-orcein (unit/mg protein) of 324. Also, the Specific activity (unit/mg protein), casein (unit/mg protein) in assay [2] is 1630.
subtilisin YaB mutant G159Y (enzyme): in assay [1], the Specific activity (unit/mg protein), elastin-orcein (unit/mg protein) was 203. Moreover, the Specific activity (unit/mg protein), casein (unit/mg protein) in assay [2] was found to be 1010.
In assay [3], wild type subtilisin YaB (enzyme) came in with a Specific activity (unit/mg protein), myofibril (unit/mg protein) of 5160. For the same substance, the Specific activity (unit/mg protein), elastin-orcein (unit/mg protein) in assay [1] was 541. For the same substance, in assay [2], the Specific activity (unit/mg protein), casein (unit/mg protein) was 8250.
For “wild type subtilisin YaB (enzyme; unit assumed)”, the kcat /Km in assay [7] was determined as 4600 M⁻¹ s⁻¹; in assay [4], 1670 M⁻¹ s⁻¹; in assay [6] it was 5250 M⁻¹ s⁻¹; in assay [5], 14200 M⁻¹ s⁻¹.
